Values of other authors in publication PMC4067134.

Legend:
[1] = biological target: integrin β3 (Homo sapiens) (UniProt P05106)
[2] = biological target: integrin αIIbβ3 (Homo sapiens) (UniProt P08514)

Chain of UniProt P05106 (P05106 27-718): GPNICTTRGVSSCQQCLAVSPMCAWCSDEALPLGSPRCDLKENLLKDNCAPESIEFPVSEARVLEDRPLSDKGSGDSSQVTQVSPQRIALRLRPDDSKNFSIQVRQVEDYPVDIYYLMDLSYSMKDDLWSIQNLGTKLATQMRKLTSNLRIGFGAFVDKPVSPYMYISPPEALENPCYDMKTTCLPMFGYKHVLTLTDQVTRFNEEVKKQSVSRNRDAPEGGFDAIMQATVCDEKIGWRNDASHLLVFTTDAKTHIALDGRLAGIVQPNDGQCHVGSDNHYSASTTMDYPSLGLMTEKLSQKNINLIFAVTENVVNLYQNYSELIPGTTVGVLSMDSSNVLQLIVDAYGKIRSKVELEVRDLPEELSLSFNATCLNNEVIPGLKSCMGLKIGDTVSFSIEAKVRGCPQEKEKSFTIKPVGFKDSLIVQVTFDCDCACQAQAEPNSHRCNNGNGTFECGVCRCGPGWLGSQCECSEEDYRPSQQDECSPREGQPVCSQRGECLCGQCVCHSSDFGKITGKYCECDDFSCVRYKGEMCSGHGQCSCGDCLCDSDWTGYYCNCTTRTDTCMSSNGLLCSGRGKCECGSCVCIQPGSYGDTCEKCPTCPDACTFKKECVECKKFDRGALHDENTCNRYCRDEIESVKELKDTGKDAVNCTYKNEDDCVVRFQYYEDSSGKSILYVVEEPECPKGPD

Kd [1]: 6.9 µM
Kd [2]: 7 µM
Substance: ERp5 (from UniProt Q15084)
